# Results from US20070036799A1 (MacroGenics, published 2007).
# Changes are numbered by the printed parent chain. In names and notes the source's numbering stands. Read-outs that look alike come from different tables or passages of the source.
# T1: FcγRIIB-Fc fusion protein (soluble dimeric FcγRIIB) (human, UniProt P31994 43-217)
# T1 construct: extracellular domain; the suffix agl in 2bfcagl is not explained; also called FcRIIB-Fc; FcγRIIB-G2; not shown: hinge-CH2-CH3 domain of human IgG2
# T1 sequence (looked up): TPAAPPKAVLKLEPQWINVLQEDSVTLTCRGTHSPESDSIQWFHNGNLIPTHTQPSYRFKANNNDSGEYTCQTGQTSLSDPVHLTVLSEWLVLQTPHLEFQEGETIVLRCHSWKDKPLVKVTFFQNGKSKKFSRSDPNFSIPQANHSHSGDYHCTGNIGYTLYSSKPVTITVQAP
# B1: ch4-4-20 K317N, F423-deleted (antibody)
# chain: EPKSCDKTHTCPPCPAPELLGGPSVFLFPPKPKDTLMISRTPEVTCVVVDVSHEDPEVKFNWYVDGVEVHNAKTKPREEQYNSTYRVVSVLTVLHQDWLNGNEYKCKVSNKALPAPIEKTISKAKGQPREPQVYTLPPSREEMTKNQVSLTCLVKGFYPSDIAVEWESNGQPENNYKTTPPVLDSDGSFFLYSKLTVDKSRWQQGNVSCSVMHEALHNHYTQKSLSLSPGK
# B2: ch4-4-20 K288N, A330S, P396L (antibody)
# chain: EPKSCDKTHTCPPCPAPELLGGPSVFLFPPKPKDTLMISRTPEVTCVVVDVSHEDPEVKFNWYVDGVEVHNANTKPREEQYNSTYRVVSVLTVLHQDWLNGKEYKCKVSNKALPSPIEKTISKAKGQPREPQVYTLPPSREEMTKNQVSLTCLVKGFYPSDIAVEWESNGQPENNYKTTPLVLDSDGSFFLYSKLTVDKSRWQQGNVFSCSVMHEALHNHYTQKSLSLSPGK
# B3: ch4-4-20 E293V, Q295E, A327T (antibody)
# chain: B2 chain with N73K, E78V, Q80E, A112T, S115A, L181P
# B4: ch4-4-20 Y319F, P352L, P396L (antibody)
# chain: B2 chain with N73K, Y104F, S115A, P137L
# B5: ch4-4-20 G316D, A378V, D399E (antibody)
# chain: ASTKGPSVFPLAPSSKSTSGGTAALGCLVKDYFPEPVTVSWNSGALTSGVHTFPAVLQSSGLYSLSSVVTVPSSSLGTQTYICNVNHKPSNTKVDKKVEPKSCDKTHTCPPCPAPELLGGPSVFLFPPKPKDTLMISRTPEVTCVVVDVSHEDPEVKFNWYVDGVEVHNAKTKPREEQYNSTYRVVSVLTVLHQDWLNDKEYKCKVSNKALPAPIEKTISKAKGQPREPQVYTLPPSRDELTKNQVSLTCLVKGFYPSDIVVEWESNGQPENNYKTTPPVLESDGSFFLYSKLTVDKSRWQQGNVFSCSVMHEALHNHYTQKSLSLSPGK
# B6: ch4-4-20 V348M, K334N, F275I, Y202M, K147T (antibody)
# chain: B5 chain with K30T, V85M, F158I, D199G, K217N, V231M, V261A, E282D
# B7: ch4D5 MGFc0074 (F243L, R292P, V305I) (antibody)
# chain: B5 chain with F126L, R175P, V188I, D199G, V261A, E282D
# B8: ch4-4-20 F243I, V379L, G420V (antibody)
# chain: B5 chain with F126I, D199G, V261A, V262L, E282D, G303V
# B9: ch4D5 MGFc0088A (F243L, R292P, Y300L, P396L) (antibody)
# chain: B5 chain with F126L, R175P, Y183L, D199G, V261A, P279L, E282D
# B10: ch4-4-20 K334E, T359N, T366S (antibody)
# chain: B5 chain with D199G, K217E, T242N, T249S, V261A, E282D
# B11: ch4-4-20 T215P, K274N, A287G, K334N, L365V, P396L (antibody)
# chain: PEPKSCDKTHTCPPCPAPELLGGPSVFLFPPKPKDTLMISRTPEVTCVVVDVSHEDPEVNFNWYVDGVEVHNGKTKPREEQYNSTYRVVSVLTVLHQDWLNGKEYKCKVSNKALPAPIENTISKAKGQPREPQVYTLPPSRDELTKNQVSVTCLVKGFYPSDIAVEWESNGQPENNYKTTPLVLDSDGSFFLYSKLTVDKSRWQQGNVFSCSVMHEALHNHYTQKSLSLSPGK
# How the values were obtained:
# [1] = molecular target: T1, FcγRIIB-Fc fusion protein (soluble …); experiment: ELISA
# [2] = molecular target: T1, FcγRIIB-Fc fusion protein (soluble …); experiment: ELISA; remark: listed apart in the source
# [3] = molecular target: T1, FcγRIIB-Fc fusion protein (soluble …); experiment: SPR
# [4] = molecular target: T1, FcγRIIB-Fc fusion protein (soluble …); experiment: SPR; remark: listed apart in the source
# [5] = molecular target: T2, soluble monomeric FcγRIIIA-linker-AVITAG (158V), biotinylated (human, UniProt P08637 17-203, biotin on the AVITAG lysine (BirA)); experiment: ELISA
# T2 construct: range 1-203; used as monomer in ELISA and BIAcore; also called FcR3A; FcRIIIa; not shown: linker-AVITAG (15 aa AVITAG) at the C-terminus; only the coding oligonucleotide is given
# T2 sequence (P08637 17-203 F176V limits assumed, form in doubt): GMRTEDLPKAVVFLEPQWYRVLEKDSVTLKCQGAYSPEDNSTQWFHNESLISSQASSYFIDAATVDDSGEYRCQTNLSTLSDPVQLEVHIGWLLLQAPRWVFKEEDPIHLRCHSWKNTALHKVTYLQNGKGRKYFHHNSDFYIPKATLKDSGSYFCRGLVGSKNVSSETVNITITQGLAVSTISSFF
# [6] = molecular target: T2, soluble monomeric …; experiment: SPR
# [7] = molecular target: T2, soluble monomeric …; experiment: ELISA; remark: listed apart in the source
# [8] = molecular target: T1, FcγRIIB-Fc fusion protein (soluble …); experiment: ELISA; remark: listed apart in the source
# [9] = molecular target: T2, soluble monomeric …; experiment: ELISA; remark: listed apart in the source
# [10] = molecular target: T2, soluble monomeric …; experiment: SPR; remark: listed apart in the source
binder,measurement,setting,value
B1,fold vs wt,[1],7 x increase
B2,"ELISA, OD",[2],1.2 OD
same,Kd,[3],0.0334 µM
same,Kd,[4],0.0413 µM
same,"ELISA, OD",[5],1 OD
B3,Kd,[3],0.086 µM
B4,Kd,[6],0.125 µM
same,Kd,[3],0.0557 µM
same,fold vs wt,[7],3.5 X
B5,Kd,[6],0.072 µM
same,koff,[6],0.117 s⁻¹
same,Kd,[3],0.046 µM
same,koff,[3],0.06 s⁻¹
same,fold vs wt,[7],1.5 X
same,fold vs wt,[8],14 X
same,fold vs wt,[9],1.5 x increase
same,fold vs wt,[1],14 x increase
B6,fold vs wt,[9],0.5 x increase
B7,Koff WT/Koff MUT,[10],2.56 ratio
B8,Kd,[3],0.0934 µM
same,koff,[3],0.101 s⁻¹
B9,Koff WT/Koff MUT,[10],10.1 ratio
B10,Kd,[6],0.0552 µM
same,koff,[6],0.128 s⁻¹
same,Kd,[3],0.072 µM
same,koff,[3],0.11 s⁻¹
same,fold vs wt,[7],1.5 X
same,fold vs wt,[9],1.5 x increase
B11,fold vs wt,[1],4 x increase
